According to patent EP3025729B1 (Glaxo Group Limited, dated 2018):
Changes are numbered by the printed parent chain.

B1: SAP-K H1L0 humanised antibody (antibody, V domains shown)
VH: QVQLVQSGAEVKKPGSSVKVSCKASGYTFTSYWMHWVRQAPGQGLEWMGMIHPNSVNTNYNEKFKSRVTITADKSTSTAYMELSSLRSEDTAVYYCARRNDYYWYFDVWGQGTLVTVSS
VL: DIQMTQSPSSLSASVGDRVTITCKASQNVNSNVAWYQQKPGKAPKLLIYSASYRYSGVPSRFSGSGSGTDFTLTISSLQPEDFATYYCQQCNNYPFTFGQGTKLEIK
B2: SAP-K H0L0 humanised antibody (antibody, V domains shown)
VH: B1 VH with Y27G, T30S
VL: B1 VL
notes: also called SAP-K HOLO
B3: SAP-K H2L0 humanised antibody (antibody, V domains shown)
VH: B1 VH with M48I, V68A
VL: B1 VL

How the values were obtained:
[1] = target: T1, human serum amyloid P component (SAP) (human, UniProt P02743 20-223); assay: ELISA, human SAP directly immobilised at 1 µg/mL
T1 construct: Purified from human material; In some assays it stood denatured (reduced SDS-PAGE); this is said under assay; also called human SAP; homo sapiens SAP
T1 sequence (P02743 20-223, form in doubt): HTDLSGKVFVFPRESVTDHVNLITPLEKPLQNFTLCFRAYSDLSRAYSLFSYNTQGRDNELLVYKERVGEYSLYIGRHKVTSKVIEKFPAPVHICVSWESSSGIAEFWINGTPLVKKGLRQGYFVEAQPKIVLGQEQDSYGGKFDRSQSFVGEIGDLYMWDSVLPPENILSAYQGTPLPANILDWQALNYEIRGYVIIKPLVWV

cynomologus monkey SAP = target: T2, cynomologus monkey SAP (cynomolgus monkey, UniProt A0A7N9DA00 20-223); assay: Biacore, cyno SAP amine-coupled on C1 chip, culture supernatant
T2 construct: also called cyno SAP; cynomolgus monkey serum amyloid P component
T2 sequence (A0A7N9DA00 entry or part of it): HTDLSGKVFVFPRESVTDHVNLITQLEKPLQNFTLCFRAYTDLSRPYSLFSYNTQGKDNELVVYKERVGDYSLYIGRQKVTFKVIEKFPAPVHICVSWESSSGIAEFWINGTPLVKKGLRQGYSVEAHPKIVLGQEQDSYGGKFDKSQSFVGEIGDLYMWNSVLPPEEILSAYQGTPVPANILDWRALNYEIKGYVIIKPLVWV

Binder | fold loss of human SAP binding activity compared to SAP-K chimera [1] | binding result (cynomologus monkey SAP)
B1 | ~2 fold | 
B2 | ~2 fold | no binding
B3 | ~2 fold | 
